# Measurements as given in PMC6182170.
# Changes are numbered by the printed parent chain.
# Key:
# Assay in all cases: EMSA
# Conditions in all cases: EMSA: 20 pM dsRNA, 50 mM KCl, 10 mM Tris-HCl pH 8.0, 10% glycerol, 1 mM MgCl2, 0.5 mM DTT, on ice 30 min; native 6% gel, 0.5x TBE, 4 C
# [1] = target: ADR-1 WT;ADR-2 WT (Caenorhabditis elegans;Caenorhabditis elegans) (UniProt Q9U3D6+Q22618)
# [2] = target: T1, ADR-1 dsRBD2 mutant (ds2) K584E;K585A;K588A (Caenorhabditis elegans) (UniProt Q9U3D6)
# T1 sequence: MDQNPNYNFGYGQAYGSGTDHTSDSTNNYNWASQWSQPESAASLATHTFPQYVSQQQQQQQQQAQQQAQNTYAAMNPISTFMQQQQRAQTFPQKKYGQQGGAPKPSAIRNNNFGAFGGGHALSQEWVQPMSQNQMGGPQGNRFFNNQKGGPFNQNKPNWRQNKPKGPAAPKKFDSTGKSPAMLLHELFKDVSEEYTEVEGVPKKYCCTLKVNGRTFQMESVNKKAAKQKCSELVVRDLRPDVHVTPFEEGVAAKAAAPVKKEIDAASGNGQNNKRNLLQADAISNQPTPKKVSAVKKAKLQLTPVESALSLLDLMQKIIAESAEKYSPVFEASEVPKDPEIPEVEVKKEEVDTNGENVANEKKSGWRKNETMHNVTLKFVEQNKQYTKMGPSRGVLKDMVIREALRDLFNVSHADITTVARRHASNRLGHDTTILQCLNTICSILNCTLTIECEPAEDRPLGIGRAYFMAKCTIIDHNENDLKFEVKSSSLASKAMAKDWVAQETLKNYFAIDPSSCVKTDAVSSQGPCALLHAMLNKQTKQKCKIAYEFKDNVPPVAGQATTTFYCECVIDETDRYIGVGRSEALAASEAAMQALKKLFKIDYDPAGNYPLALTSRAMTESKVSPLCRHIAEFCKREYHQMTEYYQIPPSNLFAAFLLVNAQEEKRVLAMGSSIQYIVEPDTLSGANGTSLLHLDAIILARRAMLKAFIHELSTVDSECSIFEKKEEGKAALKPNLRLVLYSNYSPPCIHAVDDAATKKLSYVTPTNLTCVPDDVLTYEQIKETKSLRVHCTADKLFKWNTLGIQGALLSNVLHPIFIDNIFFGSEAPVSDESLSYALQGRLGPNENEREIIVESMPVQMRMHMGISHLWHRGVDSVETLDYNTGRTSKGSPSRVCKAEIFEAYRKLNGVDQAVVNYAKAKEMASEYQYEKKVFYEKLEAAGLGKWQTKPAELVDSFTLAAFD
# [3] = target: T2, ADR-1 dsRBD1 mutant (ds1) K223E;K224A;K227A (Caenorhabditis elegans) (UniProt Q9U3D6)
# T2 sequence: T1 sequence with K223E, K224A, K227A, E584K, A585K, A588K
# ADR-1 WT;ADR-2 WT (Caenorhabditis elegans;Caenorhabditis elegans), sequence (Q22618 whole entry, one chain of several): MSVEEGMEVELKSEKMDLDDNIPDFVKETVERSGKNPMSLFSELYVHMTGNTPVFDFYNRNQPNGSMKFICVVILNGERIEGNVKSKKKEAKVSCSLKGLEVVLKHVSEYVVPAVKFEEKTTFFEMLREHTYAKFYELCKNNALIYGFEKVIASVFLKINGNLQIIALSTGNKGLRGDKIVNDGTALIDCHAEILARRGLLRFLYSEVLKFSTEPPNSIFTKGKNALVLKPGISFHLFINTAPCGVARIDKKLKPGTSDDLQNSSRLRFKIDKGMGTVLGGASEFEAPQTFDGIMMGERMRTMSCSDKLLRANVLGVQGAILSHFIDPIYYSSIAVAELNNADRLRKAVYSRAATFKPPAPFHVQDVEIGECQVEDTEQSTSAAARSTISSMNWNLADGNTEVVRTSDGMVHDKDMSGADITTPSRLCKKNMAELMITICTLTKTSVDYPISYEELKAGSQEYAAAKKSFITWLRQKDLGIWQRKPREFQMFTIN
sequence,measurement,setting,value
UUAUUAGGUCGGCAAAUAAUUAUUGACGUGUUUUGCCAAUUAACGAUUUUUUGUAAAUUUUAUAUGUGUCUCUUACAGUAAACCGAGAGUGUAUAAAAGCAUAUGAAUAUCAGUUGCUUUGGUCAUCUGAGUAGUAAUACGAUUCGAAAAAAUCGAAAAGUUUUUUUUCCAAUUUUUUGAGUUAGCCGUGAGAGUUG / CAACUCUUCACAGCUAACUCAAAAAAUCGCGAAAAGCAUUUUUCAAAAAAUUUUUGAUUUUUUAGAUUCUUAAUACUACGCAGGUAGCCAAAGUAGCUGAUAUUUUUAUGUUUUCAUACAUUCACAUUUUACUAUAAGACACACAUACAAAAUUUACAAAAAUUGUUAAUUGACAAAAUACGUCAAUAAUUAUUUGUCUACCUAAUAA [lam-2 3'UTR 200 bp dsRNA],Kd,[1],1.5 nM
same,Kd,[2],0.95 nM
same,Kd,[3],1.47 nM
